Results: US20210253718A1, “FRIZZLED5 PROTEIN-BINDING AGENTS” (Modmab Therapeutics Corporation, priority 2016, published 2021)
Substitutions are numbered along the chain they refer to.

T1: FZD4 CRD (Homo sapiens, UniProt Q9ULV1)
T1 construct: E42-V167; GPI anchor signal (C); expressed in transfected cells; host or cells: CHO cells, lentiviral pLenti-puro
T1 sequence (Q9ULV1 42-167): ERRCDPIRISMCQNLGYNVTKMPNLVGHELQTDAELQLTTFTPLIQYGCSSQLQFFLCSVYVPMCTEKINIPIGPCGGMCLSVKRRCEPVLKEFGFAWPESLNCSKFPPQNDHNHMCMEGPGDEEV

T2: FZD9 CRD (Homo sapiens, UniProt O00144)
T2 construct: G35-A161; GPI anchor signal (C); expressed in transfected cells; host or cells: CHO cells, lentiviral pLenti-puro
T2 sequence (O00144 35-161): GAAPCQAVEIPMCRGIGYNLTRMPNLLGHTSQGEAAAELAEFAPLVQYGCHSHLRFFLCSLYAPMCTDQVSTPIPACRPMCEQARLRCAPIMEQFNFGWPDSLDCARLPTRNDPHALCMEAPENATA

T3: FZD6 CRD (Homo sapiens, UniProt O60353)
T3 construct: S20-P146; GPI anchor signal (C); expressed in transfected cells; host or cells: CHO cells, lentiviral pLenti-puro
T3 sequence (O60353 20-146): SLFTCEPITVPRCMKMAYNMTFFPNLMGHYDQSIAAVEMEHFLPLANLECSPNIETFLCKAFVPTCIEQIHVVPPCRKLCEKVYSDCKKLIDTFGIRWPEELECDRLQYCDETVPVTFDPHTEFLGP

T4: FZD10 CRD (Homo sapiens, UniProt Q9ULW2)
T4 construct: 30-156; GPI anchor signal (C); expressed in transfected cells; host or cells: CHO cells, lentiviral pLenti-puro
T4 sequence (Q9ULW2 30-156): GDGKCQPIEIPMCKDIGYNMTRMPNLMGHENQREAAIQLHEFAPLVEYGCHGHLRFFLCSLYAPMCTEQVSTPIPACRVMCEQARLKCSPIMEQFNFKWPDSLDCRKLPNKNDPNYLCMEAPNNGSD

T5: FZD5 CRD (Homo sapiens, UniProt Q13467)
T5 construct: K29-T156; GPI anchor signal (C); expressed in transfected cells; host or cells: CHO cells, lentiviral pLenti-puro
T5 sequence (Q13467 29-156): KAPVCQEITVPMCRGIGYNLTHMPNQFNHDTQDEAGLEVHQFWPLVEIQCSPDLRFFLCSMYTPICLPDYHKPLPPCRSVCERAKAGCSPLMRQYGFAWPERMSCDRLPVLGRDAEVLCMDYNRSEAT

B1: Fab-2906: anti-FZD5 Fab with antibody variable region Fv-2906; CDR SEQ ID NOs: 35, 36, 45, 84, 121, 158 (antibody, V domains shown)
VH: EVQLVESGGGLVQPGGSLRLSCAASGFNFSSSSIHWVRQAPGKGLEWVAYISSSYGYTYYADSVKGRFTISADTSKNTAYLQMNSLRAEDTAVYYCARTVRGSKKPYFSGWAMDYWGQGTLVTVSS
VL: DIQMTQSPSSLSASVGDRVTITCRASQSVSSAVAWYQQKPGKAPKLLIYSASSLYSGVPSRFSGSRSGTDFTLTISSLQPEDFATYYCQQWSWGFLITFGQGTKVEIK
B2: Fab-2907: anti-FZD5 Fab with antibody variable region Fv-2907; CDR SEQ ID NOs: 35, 36, 46, 85, 122, 159 (antibody, V domains shown)
VH: EVQLVESGGGLVQPGGSLRLSCAASGFNIYSSYMHWVRQAPGKGLEWVASISSYSGSTYYADSVKGRFTISADTSKNTAYLQMNSLRAEDTAVYYCARSSWGAYIVSYGFDYWGQGTLVTVSS
VL: DIQMTQSPSSLSASVGDRVTITCRASQSVSSAVAWYQQKPGKAPKLLIYSASSLYSGVPSRFSGSRSGTDFTLTISSLQPEDFATYYCQQVGYWWGLITFGQGTKVEIK
B3: Fab-2909: anti-FZD5 Fab with antibody variable region Fv-2909; CDR SEQ ID NOs: 35, 36, 48, 87, 124, 161 (antibody, V domains shown)
VH: B1 VH with F29I, S33Y, I34M, Y50S, Y55S, Y59S
VL: B2 VL with V91S, G92W, Y93S, W94Y, W95H, G96Y
B4: Fab-2910: anti-FZD5 Fab with antibody variable region Fv-2910; CDR SEQ ID NOs: 35, 36, 49, 88, 125, 162 (antibody, V domains shown)
VH: EVQLVESGGGLVQPGGSLRLSCAASGFNISYSYMHWVRQAPGKGLEWVASIYSSSSSTSYADSVKGRFTISADTSKNTAYLQMNSLRAEDTAVYYCARGAMDYWGQGTLVTVSS
VL: B1 VL with S92Y, W93G, G94S, F95H
B5: Fab-2911: anti-FZD5 Fab with antibody variable region Fv-2911; CDR SEQ ID NOs: 35, 36, 50, 89, 126, 163 (antibody, V domains shown)
VH: EVQLVESGGGLVQPGGSLRLSCAASGFNIYYSSMHWVRQAPGKGLEWVAYIYPYSGYTSYADSVKGRFTISADTSKNTAYLQMNSLRAEDTAVYYCARYFWWYGFDYWGQGTLVTVSS
VL: DIQMTQSPSSLSASVGDRVTITCRASQSVSSAVAWYQQKPGKAPKLLIYSASSLYSGVPSRFSGSRSGTDFTLTISSLQPEDFATYYCQQGPWYPFTFGQGTKVEIK

Test system: CHO cells not expressing Frizzled CRD
Experiment: Flow cytometry of anti-FZD5 Fab binding to CHO cells not expressing Frizzled CRD (background)
Details: not given
Excerpt: (§1) The binding of anti-FZD5 Fabs to cell surface-expressed Frizzled protein was further determined for each member of the Frizzled family via flow cytometry and immunofluorescence analysis of a panel of 10 CHO cell lines, each ectopically over-expressing the extracellular cysteine-rich domain (CRD) of a different Frizzled protein family member.

Molecule | Median fluorescence, Frizzled CRD overexpressed on CHO cells: None
B1 | 3.89
B2 | 3.43
B3 | 3.4
B4 | 2.92
B5 | 4.53

Test system: ASPC-1 cells
Experiment: Effect of anti-FZD5 Fabs on proliferation of pancreatic cancer cell lines (percent growth inhibition)
Type: cell-based, human
Details: Fab 2 μg/ml

Molecule | percent growth inhibition, ASPC-1 2 μg/ml
B1 | 20.56%
B2 | 10.02%
B3 | −6.84%
B4 | 39.05%
B5 | 3.18%

Biological target: T6, FZD2 CRD (Homo sapiens, UniProt Q14332)
T6 construct: D35-P161; GPI anchor signal (C); expressed in transfected cells; host or cells: CHO cells, lentiviral pLenti-puro
Experiment: Immunofluorescence of anti-FZD5 Fab binding to CHO cells overexpressing Frizzled CRD
Parameters: key: −: no binding; +: very weak binder; ++: weak binder; +++: good binder; ++++: very good binder
Details: not given
Protocol: (§2) Plasmids: pLCKO lentiviral vector used for knockout (TKO) library construction and expression of individual gRNAs was constructed as described previously (Hart et al., 2015). Briefly, single guide RNA (sgRNA) scaffold was amplified from px330 (Addgene 42230) and cloned into pLKO.TRC005 lentiviral vector (Broad Institute, Cambridge, Mass.) using AgeI/EcoRI restriction sites. BfuAI sites were added at the 5′ end of the sgRNA scaffold for cloning the TKO library or individual gRNA target sequences. Lenti Cas9-2A-BsdR vector used to generate Cas9 stable expression cell lines was constructed as described previously (Hart et al., 2015). Briefly, lentiCRISPR pXPR_001 (Addgene 49535) was modified through removal of the sgRNA scaffold region through NdeI/EcoRI digest and blunt ends generation using Large Klenow Fragment (NEB). 2A-puro was replaced with 2A-BsdR by PCR using the NheI/MluI sites. Each of the 10 human Frizzled cysteine rich domains (CRDs) were cloned into the lentiviral expression plasmid pLenti-puro in the following cassette: FZD_CRD-MYC-GPI.
(§3) To confirm that the FZD5-WNT7B circuit is not driven simply by expression and rule out the possibility of a disconnect between RNA and protein levels for the Wnt receptors in HPAF-II cells, a panel of recombinant Fabs were generated, alternatively referred to herein as ‘Frizzled profiler’, that can detect and discriminate all but one of the ten Frizzled receptors. […] To characterize the binding specificity of these Fabs on cells, a panel of 10 CHO cell lines was generated, each expressing the CRD domain of a different myc-tagged Frizzled family member anchored at the plasma membrane through a GPI anchor (CHO-myc-FZDGPI). Despite the high sequence identity between Frizzled family members (FIG. 7A, FIG. 7B), selective Fabs were identified for FZD4, FZD5, FZD6 and FZD10 as assessed by immunofluorescence and flow cytometry (FIG. 7D and FIG. 8). […] The FZD8 CRD is most homologous to that of FZD5 (FIG. 7B). These Fabs can be used to discriminate expression of FZD1, FZD2, FZD4, FZD5, FZD6, FZD7, FZD8, FZD9 and FZD10 (FIG. 7D and FIG. 8). The ‘Frizzled profiler’ therefore consists of 10 different Fabs that can be used to discriminate expression of 9 different Frizzled family members. The Frizzled profiler was then used to confirm that HPAF-II cells express FZD1, FZD5, FZD6 and possibly FZD8 (FIG. 7E).
as §1

Molecule | Immunofluorescence binding, Frizzled CRD overexpressed on CHO cells: FZD2
B1 | −
B2 | −
B3 | −
B4 | −
B5 | +++

Biological target: T1, FZD4 CRD
Experiment: as above
Parameters: key: −: no binding; +: very weak binder; ++: weak binder; +++: good binder; ++++: very good binder
Details: not given
Protocol: as §2, §3, §1

Molecule | Immunofluorescence binding, Frizzled CRD overexpressed on CHO cells: FZD4
B1 | −
B2 | −
B3 | −
B4 | −
B5 | −

Biological target: T2, FZD9 CRD
Experiment: as above
Parameters: key: −: no binding; +: very weak binder; ++: weak binder; +++: good binder; ++++: very good binder
Details: not given
Protocol: as §2, §3, §1

Molecule | Immunofluorescence binding, Frizzled CRD overexpressed on CHO cells: FZD9
B1 | −
B2 | −
B3 | −
B4 | −
B5 | −

Biological target: T3, FZD6 CRD
Experiment: as above
Parameters: key: −: no binding; +: very weak binder; ++: weak binder; +++: good binder; ++++: very good binder
Details: not given
Protocol: as §2, §3, §1

Molecule | Immunofluorescence binding, Frizzled CRD overexpressed on CHO cells: FZD6
B1 | −
B2 | −
B3 | −
B4 | −
B5 | −

Biological target: T4, FZD10 CRD
Experiment: as above
Parameters: key: −: no binding; +: very weak binder; ++: weak binder; +++: good binder; ++++: very good binder
Details: not given
Protocol: as §2, §3, §1

Molecule | Immunofluorescence binding, Frizzled CRD overexpressed on CHO cells: FZD10
B1 | +++
B2 | −
B3 | −
B4 | −
B5 | −

Biological target: T5, FZD5 CRD
Experiment: as above
Parameters: key: −: no binding; +: very weak binder; ++: weak binder; +++: good binder; ++++: very good binder
Details: not given
Protocol: as §2, §3, §1

Molecule | Immunofluorescence binding, Frizzled CRD overexpressed on CHO cells: FZD5
B1 | ++++
B2 | ++++
B3 | +++
B4 | ++++
B5 | ++

Test system: PATU8988S cells
Experiment: Effect of anti-FZD5 Fabs on proliferation of pancreatic cancer cell lines (percent growth inhibition)
Type: cell-based, human
Details: Fab 2 μg/ml

Molecule | percent growth inhibition, PATU8988s 2 μg/ml
B1 | −17.42%
B2 | −12.76%
B3 | −9.95%
B4 | 8.48%
B5 | 8.24%

Test system: RWP1 cells
Experiment: as above
Type: cell-based, human
Details: Fab 2 μg/ml

Molecule | percent growth inhibition, RWP1 2 μg/ml
B1 | 1.19%
B2 | 8.52%
B3 | 12.89%
B4 | 71.49%
B5 | 20.34%
